Among the data in the RNAGym collection of RNA variant scans (doi:10.1093/nar/gkz1192) are self-cleavage values, retold here.

B1: CPEB3 Ribozyme (parent)
chain: UAACAGGGGGCCACAGCAGAAGCGUUCACGUCGCAGCCCCUGUCAGAUUCUGGUGAAUCUGCGAAUUCUGCUGUAUAUCUC

In this data set the parent is B1. Put plainly: self-cleavage, relative activity (ratio to wild type); higher = more cleavage; in vitro, sequencing. The method, boiled down: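 For each CPEB3 ribozyme variant, relative activity is its cleaved/total read fraction divided by the unmutated ribozyme's. Barcoded error-prone PCR libraries were transcribed by T7 RNA polymerase (5 hours, 37°C) and held in DNase I for 15 min before an EDTA stop, with cleavage occurring throughout. Template-switching reverse transcription and Illumina sequencing were used to read the RNAs. A 5-read minimum applied, and results are the mean of three batches.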
Consider UAACAGGGGGCCACAGCAGAAGCGUUCACGUCGCAGCCCCCGUCAGAUUCUGGUGAAUCUGCGAAUUCUGCUGUAUAUCUC, for which the self-cleavage was found to be 1.09.

Turning to UAACAGGGGGCCACAGCAGAAGCGUUCACGUCGCAGCCCCCGUCAGAUUCUGGUGAAUCUUCGAAUUCUGCUGUAUAUCUC, the self-cleavage was determined as 0.62.

Regarding UAACAGGGGGCCACAGCAGAAGCGUUCACGUCGCAGCCCCCGUCAGAUUCUGGUGAAUCUACGAAUUCUGCUGUAUAUCUC, the self-cleavage was 0.34.

For the variant UAACAGGGGGCCACAGCAGAAGCGUUCACGUCGCAGCCCCCGUCAGAUUCUGGUGAAUCUCCGAAUUCUGCUGUAUAUCUC, the self-cleavage was 0.21.

Consider UAACAGGGGGCCACAGCAGAAGCGUUCACGUCGCAGCCCCAGUCAGAUUCUGGUGAAUCUGCGAAUUCUGCUGUAUAACUC, for which the self-cleavage came out at 0.25.

As to UAACAGGGGGCCACAGCAGAAGCGUUCACGUCGCAGCCCCAGUCAGAUUCUGGUGAAUCUGCGAAUUCUGCUGUAUAGCUC, the self-cleavage was found to be 0.13.

As to UAACAGGGGGCCACAGCAGAAGCGUUCACGUCGCAGCCCCAGUCAGAUUCUGGUGAAUCUGCGAAUUCUGCUGUAUACCUC, the self-cleavage stood at 0.26.

In the case of UAACAGGGGGCCACAGCAGAAGCGUUCACGUCGCAGCCCCCGUCAGAUUCUGGUGAAUAUGCGAAUUCUGCUGUAUAUCUC, the self-cleavage was determined as 0.27.

For UAACAGGGGGCCACAGCAGAAGCGUUCACGUCGCAGCCCCCGUCAGAUUCUGGUGAAUUUGCGAAUUCUGCUGUAUAUCUC, the self-cleavage was 0.89.

As for UAACAGGGGGCCACAGCAGAAGCGUUCACGUCGCAGCCCCCGUCAGAUUCUGGUGAAUCUGCGAAUUUUGCUGUAUAUCUC, the self-cleavage stood at 1.09.

Take UAACAGGGGGCCACAGCAGAAGCGUUCACGUCGCAGCCCCCGUCAGAUUCUGGUGAAUCUGCGAAUUGUGCUGUAUAUCUC: the self-cleavage stood at 0.39.

As to UAACAGGGGGCCACAGCAGAAGCGUUCACGUCGCAGCCCCCGUCAGAUUCUGGUGAAUCUGCGAAUUCUGCUGUAUAUAUC, the self-cleavage came to 1.21.

As for UAACAGGGGGCCACAGCAGAAGCGUUCACGUCGCAGCCCCCGUCAGAUUCUGGUGAAUCUGCGAAUUCUGCUGUAUAUUUC, the self-cleavage was 1.26.

As for UAACAGGGGGCCACAGCAGAAGCGUUCACGUCGCAGCCCCCGUCAGAUUCUGGUGAAUCUGCGAAUUCUGCUGUAUAUCUU, the self-cleavage was determined as 1.19.

As for UAACAGGGGGCCACAGCAGAAGCGUUCACGUCGCAGCCCCCGUCAGAUUCUGGUGAAUCUGCGAAUUCUGCUGUAUAUCUA, the self-cleavage stood at 1.19.

With UAACAGGGGGCCACAGCAGAAGCGUUCACGUCGCAGCCCCCGUCAGAUUCUGGUGAAUCUGCGAAUUCUGCUGUAUCUCUC, the self-cleavage amounted to 1.09.

On to UAACAGGGGGCCACAGCAGAAGCGUUCACGUCGCAGCCCCCGUCAGAUUCUGGUGAAUCUGCGAAUUCUGCUGUAUUUCUC, for which the self-cleavage turned out to be 1.17.

As for UAACAGGGGGCCACAGCAGAAGCGUUCACGUCGCAGCCCCCGUCAGAUUCUGGUGAAUCUGCGAAUUCUGCUGUAUGUCUC, the self-cleavage was 1.17.

Regarding UAACAGGGGGCCACAGCAGAAGCGUUCACGUCGCAGCCCCCGUCCGAUUCUGGUGAAUCUGCGAAUUCUGCUGUAUAUCUC, the self-cleavage amounted to 0.53.

On to UAACAGGGGGCCACAGCAGAAGCGUUCACGUCGCAGCCCCCGUCGGAUUCUGGUGAAUCUGCGAAUUCUGCUGUAUAUCUC, for which the self-cleavage amounted to 0.92.

UAACAGGGGGCCACAGCAGAAGCGUUCACGUCGCAGCCCCCGUCUGAUUCUGGUGAAUCUGCGAAUUCUGCUGUAUAUCUC: the self-cleavage is 0.68.

In the case of UAACAGGGGGCCACAGCAGAAGCGUUCACGUCGCAGCCCCCGUCAGAUUCUGGUGAAUCUGAGAAUUCUGCUGUAUAUCUC, the self-cleavage was determined as 0.19.

With UAACAGGGGGCCACAGCAGAAGCGUUCACGUCGCAGCCCCCGUCAGAUUCUGGUGAAUCUGGGAAUUCUGCUGUAUAUCUC, the self-cleavage came to 0.15.

With UAACAGGGGGCCACAGCAGAAGCGUUCACGUCGCAGCCCCCGUCAGAUUCUGGUGAAUCUGUGAAUUCUGCUGUAUAUCUC, the self-cleavage is 0.17.

On to UAACAGGGGGCCACAGCAGAAGCGUUCACGUCGCAGCCCCCGUCAGAUUCUGGUGAAUCUGCCAAUUCUGCUGUAUAUCUC, for which the self-cleavage amounted to 1.06.

For the variant UAACAGGGGGCCACAGCAGAAGCGUUCACGUCGCAGCCCCCGUCAGAUUCUGGUGAAUCUGCAAAUUCUGCUGUAUAUCUC, the self-cleavage came out at 0.89.

Regarding UAACAGGGGGCCACAGCAGAAGCGUUCACGUCGCAGCCCCCGUCAGAUUCUGGUGAAUCUGCUAAUUCUGCUGUAUAUCUC, the self-cleavage was 1.13.

With UAACAGGGGGCCACAGCAGAAGCGUUCACGUCGCAGCCCCCGUCAGCUUCUGGUGAAUCUGCGAAUUCUGCUGUAUAUCUC, the self-cleavage worked out at 0.46.

As for UAACAGGGGGCCACAGCAGAAGCGUUCACGUCGCAGCCCCCGUCAGGUUCUGGUGAAUCUGCGAAUUCUGCUGUAUAUCUC, the self-cleavage was 1.

With UAACAGGGGGCCACAGCAGAAGCGUUCACGUCGCAGCCCCCGUCAGUUUCUGGUGAAUCUGCGAAUUCUGCUGUAUAUCUC, the self-cleavage stood at 0.61.

In the case of UAACAGGGGGCCACAGCAGAAGCGUUCACGUCGCAGCCCCCGUCAGAUUCUGGUUAAUCUGCGAAUUCUGCUGUAUAUCUC, the self-cleavage was found to be 1.17.

In the case of UAACAGGGGGCCACAGCAGAAGCGUUCACGUCGCAGCCCCCGUCAGAUUCUGGUAAAUCUGCGAAUUCUGCUGUAUAUCUC, the self-cleavage was 0.93.

On to UAACAGGGGGCCACAGCAGAAGCGUUCACGUCGCAGCCCCCGUCAGAUUCUGGUGAAUCUGCGAGUUCUGCUGUAUAUCUC, for which the self-cleavage came out at 0.53.

For UAACAGGGGGCCACAGCAGAAGCGUUCACGUCGCAGCCCCCGUCAGAUUCUGGUGAAUCUGCGAUUUCUGCUGUAUAUCUC, the self-cleavage turned out to be 0.48.

With UAACAGGGGGCCACAGCAGAAGCGUUCACGUCGCAGCCCCCGUCAGAUUCUGGUGAAUCUGCGACUUCUGCUGUAUAUCUC, the self-cleavage came to 0.4.

For the variant UAACAGGGGGCCACAGCAGAAGCGUUCACGUCGCAGCCCCCGUCACAUUCUGGUGAAUCUGCGAAUUCUGCUGUAUAUCUC, the self-cleavage turned out to be 0.42.

For UAACAGGGGGCCACAGCAGAAGCGUUCACGUCGCAGCCCCCGUCAUAUUCUGGUGAAUCUGCGAAUUCUGCUGUAUAUCUC, the self-cleavage was found to be 0.34.

As to UAACAGGGGGCCACAGCAGAAGCGUUCACGUCGCAGCCCCCGUAAGAUUCUGGUGAAUCUGCGAAUUCUGCUGUAUAUCUC, the self-cleavage turned out to be 0.39.

As to UAACAGGGGGCCACAGCAGAAGCGUUCACGUCGCAGCCCCCGUUAGAUUCUGGUGAAUCUGCGAAUUCUGCUGUAUAUCUC, the self-cleavage worked out at 0.53.

With UAACAGGGGGCCACAGCAGAAGCGUUCACGUCGCAGCCCCCGUCAGAUUCUGGUGAGUCUGCGAAUUCUGCUGUAUAUCUC, the self-cleavage was determined as 1.

As to UAACAGGGGGCCACAGCAGAAGCGUUCACGUCGCAGCCCCCGUCAGAUUCUGGUGACUCUGCGAAUUCUGCUGUAUAUCUC, the self-cleavage stood at 0.58.

Take UAACAGGGGGCCACAGCAGAAGCGUUCACGUCGCAGCCCCCGUCAGAUUCUGGUGAUUCUGCGAAUUCUGCUGUAUAUCUC: the self-cleavage was found to be 0.78.

Consider UAACAGGGGGCCACAGCAGAAGCGUUCACGUCGCAGCCCCAGUCAGAUUCUGGUGAAUCUGCGAAUUCUGCUGUAUAUCCC, for which the self-cleavage came out at 0.32.

For UAACAGGGGGCCACAGCAGAAGCGUUCACGUCGCAGCCCCAGUCAGAUUCUGGUGAAUCUGCGAAUUCUGCUGUAUAUCGC, the self-cleavage is 0.41.

On to UAACAGGGGGCCACAGCAGAAGCGUUCACGUCGCAGCCCCAGUCAGAUUCUGGUGAAUCUGCGAAUUCUGCUGUAUAUCAC, for which the self-cleavage amounted to 0.28.

Consider UAACAGGGGGCCACAGCAGAAGCGUUCACGUCGCAGCCCCCGUCAGAUUCUGGUGAAUCUGCGUAUUCUGCUGUAUAUCUC, for which the self-cleavage came to 0.4.

As for UAACAGGGGGCCACAGCAGAAGCGUUCACGUCGCAGCCCCCGUCAGAUUCUGGUGAAUCUGCGCAUUCUGCUGUAUAUCUC, the self-cleavage was determined as 0.46.

Consider UAACAGGGGGCCACAGCAGAAGCGUUCACGUCGCAGCCCCCGUCAGAUUCUGGUGAAUCUGCGGAUUCUGCUGUAUAUCUC, for which the self-cleavage was determined as 0.77.

Turning to UAACAGGGGGCCACAGCAGAAGCGUUCACGUCGCAGCCCCCAUCAGAUUCUGGUGAAUCUGCGAAUUCUGCUGUAUAUCUC, the self-cleavage was 0.23.

As for UAACAGGGGGCCACAGCAGAAGCGUUCACGUCGCAGCCCCCCUCAGAUUCUGGUGAAUCUGCGAAUUCUGCUGUAUAUCUC, the self-cleavage worked out at 0.23.

As to UAACAGGGGGCCACAGCAGAAGCGUUCACGUCGCAGCCCCCGUCAGAUUCUGGUGUAUCUGCGAAUUCUGCUGUAUAUCUC, the self-cleavage was 0.75.

Consider UAACAGGGGGCCACAGCAGAAGCGUUCACGUCGCAGCCCCCGUCAGAUUCUGGUGGAUCUGCGAAUUCUGCUGUAUAUCUC, for which the self-cleavage came to 0.94.

Turning to UAACAGGGGGCCACAGCAGAAGCGUUCACGUCGCAGCCCCCGUCAGAUUCUGGUGCAUCUGCGAAUUCUGCUGUAUAUCUC, the self-cleavage was determined as 0.64.

In the case of UAACAGGGGGCCACAGCAGAAGCGUUCACGUCGCAGCCCCCGUCAGAUUCUGGUGAAUCUGCGAAUUCUGCUGUCUAUCUC, the self-cleavage amounted to 1.15.

As for UAACAGGGGGCCACAGCAGAAGCGUUCACGUCGCAGCCCCCGUCAGAUUCUGGUGAAUCUGCGAAUUCUGCUGUUUAUCUC, the self-cleavage came to 1.18.

Turning to UAACAGGGGGCCACAGCAGAAGCGUUCACGUCGCAGCCCCCGUCAGAUUCUGGUGAAUCUGCGAAUUCUGCUGUGUAUCUC, the self-cleavage is 1.09.

Take UAACAGGGGGCCACAGCAGAAGCGUUCACGUCGCAGCCCCCGUCAGAUUGUGGUGAAUCUGCGAAUUCUGCUGUAUAUCUC: the self-cleavage amounted to 0.96.

Regarding UAACAGGGGGCCACAGCAGAAGCGUUCACGUCGCAGCCCCCGUCAGAUUUUGGUGAAUCUGCGAAUUCUGCUGUAUAUCUC, the self-cleavage is 1.08.

As to UAACAGGGGGCCACAGCAGAAGCGUUCACGUCGCAGCCCCCGUCAGAUUAUGGUGAAUCUGCGAAUUCUGCUGUAUAUCUC, the self-cleavage stood at 0.94.

UAACAGGGGGCCACAGCAGAAGCGUUCACGUCGCAGCCCCCGUCAGAUUCUGGUGAAUCUGCGAAUUCUGUUGUAUAUCUC: the self-cleavage turned out to be 0.76.

Regarding UAACAGGGGGCCACAGCAGAAGCGUUCACGUCGCAGCCCCCGUCAGAUUCUGGUGAAUCUGCGAAUUCUGAUGUAUAUCUC, the self-cleavage was 0.33.

Take UAACAGGGGGCCACAGCAGAAGCGUUCACGUCGCAGCCCCCGUCAGAUUCUGGUGAAUCUGCGAAUUCUGGUGUAUAUCUC: the self-cleavage is 0.4.

With UAACAGGGGGCCACAGCAGAAGCGUUCACGUCGCAGCCCCAGUCAGAUUCUGGUGAAUCUGCGAAUUCUGCUGUAGAUCUC, the self-cleavage came to 0.22.

In the case of UAACAGGGGGCCACAGCAGAAGCGUUCACGUCGCAGCCCCCGUCAGAUUCUUGUGAAUCUGCGAAUUCUGCUGUAUAUCUC, the self-cleavage was 1.03.

Consider UAACAGGGGGCCACAGCAGAAGCGUUCACGUCGCAGCCCCCGUCAGAUUCUAGUGAAUCUGCGAAUUCUGCUGUAUAUCUC, for which the self-cleavage was 1.18.

For the variant UAACAGGGGGCCACAGCAGAAGCGUUCACGUCGCAGCCCCCGUCAGAUUCUCGUGAAUCUGCGAAUUCUGCUGUAUAUCUC, the self-cleavage worked out at 1.12.

Take UAACAGGGGGCCACAGCAGAAGCGUUCACGUCGCAGCCCCCGUCAGAUUCUGCUGAAUCUGCGAAUUCUGCUGUAUAUCUC: the self-cleavage was 1.13.

Regarding UAACAGGGGGCCACAGCAGAAGCGUUCACGUCGCAGCCCCCGUCAGAUUCUGAUGAAUCUGCGAAUUCUGCUGUAUAUCUC, the self-cleavage stood at 1.13.
